# Assay results as given in US20050191294A1, “Compositions and methods of use of targeting peptides for diagnosis and therapy” (Board of Regents, The University of Texas System, priority 2003, published 2005).
# Molecular target: recombinant gst-fused prohibitin [GST: P08515]
# Assay: phage binding to gst-prohibitin immobilized on microtiter plate, 10^9 TU, bound TU counted
# recombinant gst-fused prohibitin [GST: P08515], sequence (P08515 whole entry, the tested form may be a part): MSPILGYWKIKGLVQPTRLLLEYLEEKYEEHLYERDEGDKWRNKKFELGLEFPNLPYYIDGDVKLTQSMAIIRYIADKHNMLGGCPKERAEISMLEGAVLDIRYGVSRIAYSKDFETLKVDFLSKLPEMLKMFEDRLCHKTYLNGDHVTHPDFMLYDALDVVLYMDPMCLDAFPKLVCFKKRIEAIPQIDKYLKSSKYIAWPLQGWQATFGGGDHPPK
binder,measurement,value
"CKGGRAKDC (peptide, not shown: large carriers, modifications not checked) [… (SEQ ID NO:4)-displaying phage]",fold binding relative to control insertless phage,8 fold
